T1: HTRA3, P83110
T1 sequence (P83110 354-453, limits assumed, looked up): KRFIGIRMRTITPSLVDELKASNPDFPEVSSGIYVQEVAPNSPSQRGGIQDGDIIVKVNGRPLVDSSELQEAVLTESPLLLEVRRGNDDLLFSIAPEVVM

T2: SNTA1, Q13424
T2 sequence (Q13424 82-180, limits assumed, looked up): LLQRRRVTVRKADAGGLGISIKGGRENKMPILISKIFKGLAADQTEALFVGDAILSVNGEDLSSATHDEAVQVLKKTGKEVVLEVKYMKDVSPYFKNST

T3: APBA2_1, Q99767
T3 sequence (Q99767 563-664, limits assumed, looked up): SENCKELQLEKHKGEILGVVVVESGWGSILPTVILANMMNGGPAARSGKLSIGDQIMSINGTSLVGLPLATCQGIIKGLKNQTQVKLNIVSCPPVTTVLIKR

T4: MPP6, Q9NZW5
T4 sequence (Q9NZW5 125-219, limits assumed, looked up): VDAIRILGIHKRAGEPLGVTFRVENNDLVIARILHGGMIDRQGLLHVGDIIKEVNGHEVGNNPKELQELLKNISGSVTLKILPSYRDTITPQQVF

T5: APBA3_1, O96018
T5 sequence (O96018 389-490, limits assumed, looked up): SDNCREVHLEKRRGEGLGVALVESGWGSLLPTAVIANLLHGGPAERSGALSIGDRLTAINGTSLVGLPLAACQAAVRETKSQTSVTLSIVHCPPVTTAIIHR

T6: DFNB31_2, Q9P202
T6 sequence (Q9P202 274-371, limits assumed, looked up): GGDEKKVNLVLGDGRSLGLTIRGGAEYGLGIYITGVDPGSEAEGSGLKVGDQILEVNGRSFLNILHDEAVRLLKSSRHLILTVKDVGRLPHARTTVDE

T7: SNTG1, Q9NSN8
T7 sequence (Q9NSN8 52-150, limits assumed, looked up): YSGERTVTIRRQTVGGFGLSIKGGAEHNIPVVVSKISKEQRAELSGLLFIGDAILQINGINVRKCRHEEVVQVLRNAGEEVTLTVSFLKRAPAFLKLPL

T8: PARD3B_1, Q8TEW8
T8 sequence (Q8TEW8 196-299, limits assumed, looked up): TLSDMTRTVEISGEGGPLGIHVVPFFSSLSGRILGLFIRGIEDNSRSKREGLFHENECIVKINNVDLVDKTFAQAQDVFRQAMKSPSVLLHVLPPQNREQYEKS

T9: DLG3_2, Q92796
T9 sequence (Q92796 221-321, limits assumed, looked up): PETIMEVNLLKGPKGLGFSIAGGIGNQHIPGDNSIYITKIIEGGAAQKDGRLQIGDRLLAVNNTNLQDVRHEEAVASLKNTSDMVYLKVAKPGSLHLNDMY

T10: DFNB31_3, Q9P202
T10 sequence (Q9P202 811-907, limits assumed, looked up): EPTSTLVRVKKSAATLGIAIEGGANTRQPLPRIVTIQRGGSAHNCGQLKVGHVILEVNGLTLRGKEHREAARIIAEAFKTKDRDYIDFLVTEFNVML

T11: DLG3_3, Q92796
T11 sequence (Q92796 374-475, limits assumed, looked up): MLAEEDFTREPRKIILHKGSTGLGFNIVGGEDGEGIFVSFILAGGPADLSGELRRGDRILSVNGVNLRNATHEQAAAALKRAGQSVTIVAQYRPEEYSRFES


What was measured:
Test in all cases: holdup assay
Set-up in all cases: key: below the threshold = too weak to quantify, mostly under pKd 3.1 to 4
Settings in all cases: plain residues with an end cap or a label only (N-terminal biotin on a linker: ado-ado)
HTRA3, P83110 = biological target: T1, HTRA3, P83110
SNTA1, Q13424 = biological target: T2, SNTA1, Q13424
MAST1, Q9Y2H9 = biological target: MAST1, Q9Y2H9
Chain of MAST1, Q9Y2H9 (Q9Y2H9 962-1065): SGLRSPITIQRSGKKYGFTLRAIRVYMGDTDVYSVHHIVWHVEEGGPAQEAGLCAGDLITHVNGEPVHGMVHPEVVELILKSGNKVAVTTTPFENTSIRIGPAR

APBA2_1, Q99767 = biological target: T3, APBA2_1, Q99767
IL16_4, Q14005 = biological target: IL16_4, Q14005
Chain of IL16_4, Q14005 (Q14005 1229-1329): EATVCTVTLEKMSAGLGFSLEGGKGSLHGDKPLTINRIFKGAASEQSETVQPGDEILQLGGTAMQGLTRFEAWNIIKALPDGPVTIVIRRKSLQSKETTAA

IL16_1, Q14005 = biological target: IL16_1, Q14005
Chain of IL16_1, Q14005 (Q14005 210-306): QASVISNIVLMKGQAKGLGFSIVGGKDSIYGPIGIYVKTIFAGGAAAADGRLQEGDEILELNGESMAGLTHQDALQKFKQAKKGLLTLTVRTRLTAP

Inadl_9, Q8NI35 = biological target: Inadl_9, Q8NI35
Chain of Inadl_9, Q8NI35 (Q8NI35 1530-1615): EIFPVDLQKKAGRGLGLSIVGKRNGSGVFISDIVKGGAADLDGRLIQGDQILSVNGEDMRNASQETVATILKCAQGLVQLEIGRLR

Inadl_6, Q8NI35 = biological target: Inadl_6, Q8NI35
Chain of Inadl_6, Q8NI35 (Q8NI35 1058-1167): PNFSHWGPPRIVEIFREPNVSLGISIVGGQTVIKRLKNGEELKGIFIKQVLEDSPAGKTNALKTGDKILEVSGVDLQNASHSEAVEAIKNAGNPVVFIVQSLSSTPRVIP

MPP6, Q9NZW5 = biological target: T4, MPP6, Q9NZW5
APBA3_1, O96018 = biological target: T5, APBA3_1, O96018
HTRA1, Q92743 = biological target: HTRA1, Q92743
Chain of HTRA1, Q92743 (Q92743 360-477): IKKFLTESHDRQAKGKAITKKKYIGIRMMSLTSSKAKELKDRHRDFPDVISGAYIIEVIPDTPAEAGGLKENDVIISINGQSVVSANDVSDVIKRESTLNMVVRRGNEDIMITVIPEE

LNX1_2, Q8TBB1 = biological target: LNX1_2, Q8TBB1
Chain of LNX1_2, Q8TBB1 (Q8TBB1 371-470): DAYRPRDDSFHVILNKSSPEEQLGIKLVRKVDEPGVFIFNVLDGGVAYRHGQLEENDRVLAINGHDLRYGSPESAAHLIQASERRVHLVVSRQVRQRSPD

DFNB31_2, Q9P202 = biological target: T6, DFNB31_2, Q9P202
NHERF2_2, Q15599 = biological target: NHERF2_2, Q15599
Chain of NHERF2_2, Q15599 (Q15599 142-238): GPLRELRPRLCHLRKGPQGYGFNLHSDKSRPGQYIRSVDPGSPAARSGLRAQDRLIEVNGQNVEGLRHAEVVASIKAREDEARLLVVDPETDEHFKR

GRASP, Q7Z6J2 = biological target: GRASP, Q7Z6J2
Chain of GRASP, Q7Z6J2 (Q7Z6J2 96-193): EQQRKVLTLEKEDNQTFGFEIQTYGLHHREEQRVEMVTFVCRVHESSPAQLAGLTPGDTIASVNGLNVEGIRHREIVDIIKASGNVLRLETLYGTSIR

SNTG1, Q9NSN8 = biological target: T7, SNTG1, Q9NSN8
GRIP2_5, Q9C0E4 = biological target: GRIP2_5, Q9C0E4
Chain of GRIP2_5, Q9C0E4 (Q9C0E4 544-642): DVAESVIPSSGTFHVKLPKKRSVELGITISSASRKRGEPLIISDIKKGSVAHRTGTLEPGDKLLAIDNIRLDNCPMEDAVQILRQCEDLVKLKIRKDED

SCRIB_1, Q14160 = biological target: SCRIB_1, Q14160
Chain of SCRIB_1, Q14160 (Q14160 718-814): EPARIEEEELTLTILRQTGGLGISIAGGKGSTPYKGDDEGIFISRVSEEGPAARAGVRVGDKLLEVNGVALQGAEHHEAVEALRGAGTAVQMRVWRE

Inadl_2, Q8NI35 = biological target: Inadl_2, Q8NI35
Chain of Inadl_2, Q8NI35 (Q8NI35 238-335): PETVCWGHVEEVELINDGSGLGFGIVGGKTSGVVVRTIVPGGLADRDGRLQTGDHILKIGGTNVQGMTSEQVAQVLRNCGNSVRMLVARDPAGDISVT

DLG4_3, P78352 = biological target: DLG4_3, P78352
Chain of DLG4_3, P78352 (P78352 306-403): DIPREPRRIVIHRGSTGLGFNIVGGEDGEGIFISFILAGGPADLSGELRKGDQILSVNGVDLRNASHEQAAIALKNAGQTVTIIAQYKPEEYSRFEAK

PARD3B_1, Q8TEW8 = biological target: T8, PARD3B_1, Q8TEW8
MAGI2_4, Q86UL8 = biological target: MAGI2_4, Q86UL8
Chain of MAGI2_4, Q86UL8 (Q86UL8 772-865): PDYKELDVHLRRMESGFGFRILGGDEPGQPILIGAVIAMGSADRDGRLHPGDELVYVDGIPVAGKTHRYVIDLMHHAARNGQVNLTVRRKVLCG

DLG3_2, Q92796 = biological target: T9, DLG3_2, Q92796
DFNB31_3, Q9P202 = biological target: T10, DFNB31_3, Q9P202
LAP2, Q96RT1 = biological target: LAP2, Q96RT1
Chain of LAP2, Q96RT1 (Q96RT1 other isoform, or with tags, fused parts or gaps): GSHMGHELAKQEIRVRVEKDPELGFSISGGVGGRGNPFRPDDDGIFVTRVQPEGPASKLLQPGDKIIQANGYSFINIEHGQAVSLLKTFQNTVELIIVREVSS

DLG3_3, Q92796 = biological target: T11, DLG3_3, Q92796

| Binder | pKd (HTRA3, P83110) | pKd (SNTA1, Q13424) | pKd (MAST1, Q9Y2H9) | pKd (APBA2_1, Q99767) | pKd (IL16_4, Q14005) | pKd (IL16_1, Q14005) | pKd (Inadl_9, Q8NI35) | pKd (Inadl_6, Q8NI35) | pKd (MPP6, Q9NZW5) | pKd (APBA3_1, O96018) | pKd (HTRA1, Q92743) | pKd (LNX1_2, Q8TBB1) | pKd (DFNB31_2, Q9P202) | pKd (NHERF2_2, Q15599) | pKd (GRASP, Q7Z6J2) | pKd (SNTG1, Q9NSN8) | pKd (GRIP2_5, Q9C0E4) | pKd (SCRIB_1, Q14160) | pKd (Inadl_2, Q8NI35) | pKd (DLG4_3, P78352) | further results |
| --- | --- | --- | --- | --- | --- | --- | --- | --- | --- | --- | --- | --- | --- | --- | --- | --- | --- | --- | --- | --- | --- |
| DFLSTFHIRI [CIB2, O75838] | below the threshold | below the threshold | below the threshold | below the threshold | below the threshold | below the threshold | 3.66 | below the threshold | below the threshold | below the threshold | 4.15 | below the threshold | below the threshold | below the threshold | 3.47 | below the threshold | below the threshold | below the threshold | below the threshold | 3.5 | pKd (PARD3B_1, Q8TEW8): 4.68; pKd (MAGI2_4, Q86UL8): below the threshold; pKd (DLG3_2, Q92796): 3.97; pKd (DFNB31_3, Q9P202): 3.5; pKd (LAP2, Q96RT1): below the threshold; pKd (DLG3_3, Q92796): below the threshold |
| NVYGIESVKI [GRIA2, P42262] | 3.64 | below the threshold | 4.27 | below the threshold | below the threshold | below the threshold | below the threshold | below the threshold | below the threshold | below the threshold | 4.25 | below the threshold | below the threshold | 3.71 | below the threshold | 3.65 | below the threshold | below the threshold | below the threshold | below the threshold | pKd (PARD3B_1, Q8TEW8): 5.1; pKd (MAGI2_4, Q86UL8): below the threshold; pKd (DLG3_2, Q92796): 4.19; pKd (DFNB31_3, Q9P202): below the threshold; pKd (LAP2, Q96RT1): 3.56; pKd (DLG3_3, Q92796): below the threshold |

Second part, led by results:

| pKd (HTRA3, P83110) | pKd (SNTA1, Q13424) | pKd (MAST1, Q9Y2H9) | pKd (APBA2_1, Q99767) | pKd (IL16_4, Q14005) | pKd (IL16_1, Q14005) | pKd (Inadl_9, Q8NI35) | pKd (Inadl_6, Q8NI35) | pKd (MPP6, Q9NZW5) | pKd (APBA3_1, O96018) | pKd (HTRA1, Q92743) | pKd (LNX1_2, Q8TBB1) | pKd (DFNB31_2, Q9P202) | pKd (NHERF2_2, Q15599) | pKd (GRASP, Q7Z6J2) | pKd (SNTG1, Q9NSN8) | pKd (GRIP2_5, Q9C0E4) | pKd (SCRIB_1, Q14160) | pKd (Inadl_2, Q8NI35) | pKd (DLG4_3, P78352) | Binder | further results |
| --- | --- | --- | --- | --- | --- | --- | --- | --- | --- | --- | --- | --- | --- | --- | --- | --- | --- | --- | --- | --- | --- |
| below the threshold | below the threshold | below the threshold | below the threshold | below the threshold | below the threshold | below the threshold | below the threshold | below the threshold | below the threshold | below the threshold | below the threshold | below the threshold | 4.42 | 5.31 | below the threshold | below the threshold | 3.5 | below the threshold | below the threshold | TISFTQTSQF [SLC1A1, P43005] | pKd (PARD3B_1, Q8TEW8): 4.24; pKd (MAGI2_4, Q86UL8): 3.58; pKd (DLG3_2, Q92796): 4.08; pKd (DFNB31_3, Q9P202): 3.99; pKd (LAP2, Q96RT1): below the threshold; pKd (DLG3_3, Q92796): below the threshold |
| below the threshold | below the threshold | 4.5 | below the threshold | below the threshold | below the threshold | below the threshold | below the threshold | 3.59 | below the threshold | below the threshold | below the threshold | below the threshold | below the threshold | 4.18 | below the threshold | below the threshold | 3.88 | below the threshold | 3.86 | PSHPRLQTHV [KIRREL2, Q6UWL6] | pKd (PARD3B_1, Q8TEW8): below the threshold; pKd (MAGI2_4, Q86UL8): 3.62; pKd (DLG3_2, Q92796): 4.6; pKd (DFNB31_3, Q9P202): 4; pKd (LAP2, Q96RT1): below the threshold; pKd (DLG3_3, Q92796): 3.75 |

— PMC9482650, “Quantitative fragmentomics allow affinity mapping of interactomes” (Nature Communications, 2022)
